Patent publication US20210388079A1 (IMMATICS BIOTECHNOLOGIES, published 2021)
Where two headings read alike, the source gives them in different places. Values belong to the binder of their own block, whether it stands above or below them.

Columns and labels:
Test in all cases: cell-based or functional assay
[1] = target: T1, HLA-A*02-presented SPINK2-001 on target cells (T2 cells loaded with SPINK2-001 peptide); A375 cells … (human)
[2] = target: T1, HLA-A*02-presented SPINK2-001 on target …; remark: listed apart in the source
[3] = target: T1, HLA-A*02-presented SPINK2-001 on target …; remark: listed apart in the source

EC50 (read off the curve), IFNγ release, donor TCRA-0023 [1]: ~10 nM | EC50 (read off the curve), IFNγ release, donor TCRA-0024 [1]: ~50 nM
B1: TCR R59P2A7, alpha and beta chains expressed in human primary CD8+ T-cells by RNA electroporation (TCR, V domains shown)
V domain 1: QKEVEQNSGPLSVPEGAIASLNCTYSDRGSQSFFWYRQYSGKSPELIMSIYSNGDKEDGRFTAQLNKASQYVSLLIRDSQPSDSATYLCAVQPHDMRFGAGTRLTVKP
V domain 2: SQTIHQWPATLVQPVGSPLSLECTVEGTSNPNLYWYRQAAGRGLQLLFYSVGIGQISSEVPQNLSASRPQDRQFILSSKKLLLSDSGFYLCAWSGLVAEQFFGPGTRLTVLE

EC50 (read off the curve), IFNγ release, donor TCRA-0023 [2]: ~0.6 nM | EC50 (read off the curve), IFNγ release, donor TCRA-0024 [2]: ~1 nM
B2: TCR R44P3E7, alpha and beta chains expressed in human primary CD8+ T-cells by RNA electroporation (TCR, V domains shown)
V domain 1: RGEDVEQSLFLSVREGDSSVINCTYTDSSSTYLYWYKQEPGAGLQLLTYIFSNMDMKQDQRLTVLLNKKDKHLSLRIADTQTGDSAIYFCAEINNNARLMFGDGTQLVVKP
V domain 2: AAGVIQSPRHLIKEKRETATLKCYPIPRHDTVYWYQQGPGQDPQFLISFYEKMQSDKGSIPDRFSAQQFSDYHSELNMSSLELGDSALYFCASSPPDQNTQYFGPGTRLTVLE

EC50 (read off the curve), IFNγ release, donor TCRA-0024 [3]: ~3 nM
B3: TCR R40P1C2, alpha and beta chains expressed in human primary CD8+ T-cells by RNA electroporation (TCR, V domains shown)
V domain 1: QTVTQSQPEMSVQEAETVTLSCTYDTSESDYYLFWYKQPPSRQMILVIRQEAYKQQNATENRFSVNFQKAAKSFSLKISDSQLGDAAMYFCAYLNYQLIWGAGTKLIIKP
V domain 2: EPEVTQTPSHQVTQMGQEVILRCVPISNHLYFYWYRQILGQKVEFLVSFYNNEISEKSEIFDDQFSVERPDGSNFTLKIRSTKLEDSAMYFCASSEMTAVGQYFGPGTRLTVTE
